Source: article PMC6150735, “Molecular Docking-Based Design and Development of a Highly Selective Probe Substrate for UDP-glucuronosyltransferase 1A10” (Molecular Pharmaceutics, 2018)
Changes are numbered by the printed parent chain. In names and notes the source's numbering stands. Entries after “also recorded” stand apart in the source; their conditions may differ.

Assays:
[1] = test system: human intestinal microsomes (HIM); assay: Glucuronidation by human intestinal microsomes (HIM); format: in vitro ADME; conditions: 10 μM aglycone
Description: (§1) A commercial HLM pool (cat no:452210, BD Gentest, Bedford, MA) and human intestine microsomes (HIM) pool (lot. no 1110189, XenoTech, Kansas City, KS) were purchased. Pig liver samples were prepared from untreated female pigs that were used for practicing surgical procedures at the University of Kuopio (currently: University of Eastern Finland, Kuopio campus). Other animal liver microsomes were prepared as described previously.[41] The Ethics Committee for Animal Experiments, University of Kuopio, approved these experiments.
(§2) The incubation mixtures for glucuronidation assays contained 100 mM Tris-HCl buffer pH 7.4, 2.5 mM MgCl2, 0.5 mM UDPGA, recombinant UGT, or microsomes as the enzyme source and 0–15 μM of the test aglycone substrate. When the incubation mixtures contained microsomes, alamethicin was used at a final concentration of 12.5 μg/mL, but it was not included in the recombinant enzyme assays.[43] In the first experiments three negative control samples were tested, namely (i) without the substrate 7-hydroxycoumarin derivative, (ii) without the cofactor UDPGA, or (iii) without the enzyme source. In subsequent experiments, the control samples lacked the enzyme source since it gave the highest fluorescence background. Preliminary experiments were done under different conditions than most of the later assays, namely in 2.5 mL of 100 mM phosphate buffer pH 7.4, containing 500 μg pig liver microsomes, 1.0 μM compound 6 and 0.5 mM UDPGA, at room temperature. Fluorescence spectra (excitation 200–420 nm; emission 400–600 nm) or fluorescence decrease at 390 nm excitation and 460 nm emission, were measured in these preliminary experiments, using a Shimadzu RF-5000 spectrophotofluorometer.
(§3) Most of the glucuronidation assays were carried out in 96 multiwell plate format, and incubations were carried out in 100 μL and at 37 °C, in the presence of Tris–HCl buffer pH 7.4, UDPGA, and the tested 7-hydroxycoumarin derivative, at the indicated concentrations. Fluorescence decline in the multiwell plate experiments was monitored every other minute, for 40 min, using an excitation filter at 405 nm and detection at 460 nm, in a Victor2 1420 Multilabel counter (PerkinElmer, Life Sciences, Turku, Finland). The fluorescence values were transformed into molarity using the aglycone substrates for making the respective standard curves. Slopes of the substrate concentration decrease per minute were calculated using linear regression analysis, in which the linear part of the kinetic assay indicated the glucuronidation rate. Enzyme catalyzed glucuronidation rate was calculated by subtracting the blank value from the full reaction value. The intra-assay variability of the kinetic assays was 6% when compound 6 was used as the aglycone substrate. Kinetic analyses were also performed in the same 96 multiwell plates format, with excitation filter at 405 nm and detection at 460 nm, using 6–8 different substrate concentrations per substrate and two different protein concentrations for both the wild-type and mutant UGT1A10. The higher concentrations, 13.5 mg/L for UGT1A10 and 12.0 mg/L for the UGT1A10 mutant, were used when the substrates were HFC, compounds 4 and 6, whereas the lower protein concentrations, 6.75 and 6.0 mg/L for UGT1A10 and the mutant, respectively, were used when the substrates were compounds 1, 2, 3, and 5.

[2] = test system: human UGTs; assay: Recombinant human UGT screen: glucuronidation rates across human UGTs; format: biochemical; conditions: 10 μM aglycone; for Selectivity among human UGTs: other UGTs at very low rates
Description: (§4) Recombinant human UGTs 1A1, 1A3, 1A6, 1A7, 1A8, 1A9, 1A10, 2A1, 2A2, 2A3, 2B4, 2B10, 2B7, and 2B17 were produced, as His-tagged proteins, in baculovirus-infected insect cells as previously described.[37]−[39] The relative expression level of each of these recombinant UGTs was evaluated by immunodetection, using monoclonal antibody against the His-tag, as described elsewhere.[40] A numeric value of 1.0 was given to the expression level of UGT1A8 and the relative expression level of each of the other UGTs was related to this value. Normalized activities were obtained by dividing the glucuronidation rate values by the relative expression level of the tested UGT. In addition, UGTs 1A4, 2B10, and 2B15 were purchased from Corning Life Sciences (New York) and are marked, in Figure 5, with a “C” to indicate that they are commercial enzymes. The expression levels of the UGTs in the commercial samples could not be determined, so their protein concentration was used to calculate the reaction rate.
as §2, §3

[3] = Excitation and emission fluorescence spectra of coumarin derivatives; format: physicochemical; design: dose or concentration left out as unconfirmed
Description: The absorbance spectra of 10 μM coumarin derivatives at 100 mM Tris–HCl pH 7.4 containing 10% dimethyl sulfoxide were measured using a Hitachi U-2000 Spectrophotometer (Tokyo, Japan). […] The excitation spectra was from 200 to 420 at 460 nm emission and the emission spectra was from 400 to 600 at 390 nm excitation (data in Supplementary Table S1 and Figures S1 and S2). The effect of pH on fluorescence intensity was determined at 405 nm excitation and 460 nm emission, in the presence of 1.5% trichloroacetic acid, 100 mM phosphate buffers at pH 5, 6, 7, 8, and 9, or 1.6 M glycine–NaOH pH 10.4.

[4] = Absorbance spectra of coumarin derivatives; format: physicochemical; conditions: 10 μM, 100 mM Tris–HCl pH 7.4, 10% dimethyl sulfoxide
Description: The absorbance spectra of 10 μM coumarin derivatives at 100 mM Tris–HCl pH 7.4 containing 10% dimethyl sulfoxide were measured using a Hitachi U-2000 Spectrophotometer (Tokyo, Japan). Excitation and emission fluorescence spectra of 0.1 μM coumarin derivatives in 100 mM Tris-HCl pH 7.4 were measured using a Shimadzu RF-5000 spectrophotofluorometer (Tokyo, Japan). The excitation spectra was from 200 to 420 at 460 nm emission and the emission spectra was from 400 to 600 at 390 nm excitation (data in Supplementary Table S1 and Figures S1 and S2). The effect of pH on fluorescence intensity was determined at 405 nm excitation and 460 nm emission, in the presence of 1.5% trichloroacetic acid, 100 mM phosphate buffers at pH 5, 6, 7, 8, and 9, or 1.6 M glycine–NaOH pH 10.4.

[5] = test system: human liver microsomes (HLM); assay: Glucuronidation by human liver microsomes (HLM); format: in vitro ADME; conditions: 10 μM aglycone
Description: as §1, §2, §3

[6] = substrate: COc1ccc(-c2cc3ccc(O)cc3oc2=O)cc1; assay: Glucuronidation kinetics by recombinant wild-type UGT1A10 (fluorescence decrease, 96-well plate); format: biochemical, human; conditions: other: UGT1A10 wild-type, 7-hydroxyl glucuronidation, Michaelis–Menten, one experiment; pH 7.4; 37.0 °C
Description: as §4, §2, §3

[7] = substrate: CN(C)c1ccc(-c2cc3ccc(O)cc3oc2=O)cc1; assay: as above; format: biochemical, human; conditions: other: UGT1A10 wild-type, 7-hydroxyl glucuronidation, Michaelis–Menten, one experiment; pH 7.4; 37.0 °C
Description: as §4, §2, §3

[8] = substrate: Cc1ccc(-c2cc3ccc(O)cc3oc2=O)cc1; assay: as above; format: biochemical, human; conditions: other: UGT1A10 wild-type, 7-hydroxyl glucuronidation, Michaelis–Menten, one experiment; pH 7.4; 37.0 °C
Description: as §4, §2, §3

[9] = substrate: O=c1oc2cc(O)ccc2cc1-c1ccc(F)cc1; assay: as above; format: biochemical, human; conditions: other: UGT1A10 wild-type, 7-hydroxyl glucuronidation, Michaelis–Menten, one experiment; pH 7.4; 37.0 °C
Description: as §4, §2, §3

[10] = substrate: O=c1oc2cc(O)ccc2cc1-n1cncn1; assay: as above; format: biochemical, human; conditions: other: UGT1A10 wild-type, 7-hydroxyl glucuronidation, Michaelis–Menten, one experiment; pH 7.4; 37.0 °C
Description: as §4, §2, §3

[11] = substrate: O=c1oc2cc(O)ccc2cc1-c1ccc(O)cc1; assay: as above; format: biochemical, human; conditions: other: UGT1A10 wild-type, 7-hydroxyl glucuronidation, Michaelis–Menten, one experiment; pH 7.4; 37.0 °C
Description: as §4, §2, §3

[12] = substrate: O=c1cc(C(F)(F)F)c2ccc(O)cc2o1; assay: as above; format: biochemical, human; conditions: other: UGT1A10 wild-type, 7-hydroxyl glucuronidation, Michaelis–Menten, one experiment; pH 7.4; 37.0 °C
Description: as §4, §2, §3

[13] = substrate: COc1ccc(-c2cc3ccc(O)cc3oc2=O)cc1; assay: Glucuronidation kinetics by UGT1A10 mutant 1A10-H210M (fluorescence decrease, 96-well plate); format: biochemical, human; conditions: other: UGT1A10mutant (H210M), 7-hydroxyl glucuronidation, one experiment; pH 7.4; 37.0 °C
Description: (§5) The UGT1A10 mutant 1A10-H210 M was prepared according to the QuikChange methodology, using the cloned UGT1A10 in pFastBac[42] as a template and the following two oligonucleotides:
(§6) The entire coding sequence of UGT1A10 in the mutant clone was sequenced, and subsequently, recombinant baculovirus was prepared and used to express the mutant enzyme in baculovirus-infected SF9 insect cells.
as §2, §3

[14] = substrate: CN(C)c1ccc(-c2cc3ccc(O)cc3oc2=O)cc1; assay: as above; format: biochemical, human; conditions: other: UGT1A10mutant (H210M), 7-hydroxyl glucuronidation, one experiment; pH 7.4; 37.0 °C
Description: as §5, §6, §2, §3

[15] = substrate: Cc1ccc(-c2cc3ccc(O)cc3oc2=O)cc1; assay: as above; format: biochemical, human; conditions: other: UGT1A10mutant (H210M), 7-hydroxyl glucuronidation, one experiment; pH 7.4; 37.0 °C
Description: as §5, §6, §2, §3

[16] = substrate: O=c1oc2cc(O)ccc2cc1-c1ccc(F)cc1; assay: as above; format: biochemical, human; conditions: other: UGT1A10mutant (H210M), 7-hydroxyl glucuronidation, one experiment; pH 7.4; 37.0 °C
Description: as §5, §6, §2, §3

[17] = substrate: O=c1oc2cc(O)ccc2cc1-n1cncn1; assay: as above; format: biochemical, human; conditions: other: UGT1A10mutant (H210M), 7-hydroxyl glucuronidation, one experiment; pH 7.4; 37.0 °C
Description: as §5, §6, §2, §3

[18] = substrate: O=c1oc2cc(O)ccc2cc1-c1ccc(O)cc1; assay: as above; format: biochemical, human; conditions: other: UGT1A10mutant (H210M), 7-hydroxyl glucuronidation, one experiment; pH 7.4; 37.0 °C
Description: as §5, §6, §2, §3

[19] = substrate: O=c1cc(C(F)(F)F)c2ccc(O)cc2o1; assay: as above; format: biochemical, human; conditions: other: UGT1A10mutant (H210M), 7-hydroxyl glucuronidation, one experiment; pH 7.4; 37.0 °C
Description: as §5, §6, §2, §3

## O=c1ccc2ccc(O)cc2o1 [7-hydroxycoumarin, reference compound]
[1]
  Glucuronidation rate, HLM compared with HIM (in words): much higher rates by HLM than by HIM
[2]; control substrates
  UGT(s) that primarily glucuronidate the substrate: UGT1A6

## Cc1ccc(-c2cc3ccc(O)cc3oc2=O)cc1 [Compound 5, 7-Hydroxy-3-(p-tolyl)-2H-chromen-2-one]
[3]
  Fluorescence EMmax: 462 nm
  Fluorescence EXmax: 358 nm
[2]
  Selectivity among human UGTs: selective for UGT1A10
[4]
  Amax: 347 nm
  ε abs: 19500 M⁻¹ cm⁻¹

## CN(C)c1ccc(-c2cc3ccc(O)cc3oc2=O)cc1 [Compound 4, 7-Hydroxy-3-(4-(dimethylamino)phenyl)-2H-chromen-2-one]
[3]
  Fluorescence EMmax: 457 nm
[2]
  Selectivity among human UGTs: selective for UGT1A10
[5]
  Glucuronidation by HLM (in words): not glucuronidated by HLM at all, or only at very low rates; also recorded: very low or below the detection limit
[4]
  Amax: 370 nm
  ε abs: 22900 M⁻¹ cm⁻¹

B1: UGT1A10 (Homo sapiens) (protein)
chain: GKLLVVPMDGSHWFTMQSVVEKLILRGHEVVVVMPEVSWQLERSLNCTVKTYSTSYTLEDQNREFMVFAHAQWKAQAQSIFSLLMSSSSGFLDLFFSHCRSLFNDRKLVEYLKESSFDAVFLDPFDTCGLIVAKYFSLPSVVFTRGIFCHHLEEGAQCPAPLSYVPNDLLGFSDAMTFKERVWNHIVHLEDHLFCQYLFRNALEIASEILQTPVTAYDLYSHTSIWLLRTDFVLDYPKPVMPNMIFIGGINCHQGKPLPMEFEAYINASGEHGIVVFSLGSMVSEIPEKKAMAIADALGKIPQTVLWRYTGTRPSNLANNTILVKWLPQNDLLGHPMTRAFITHAGSHGVYESICNGVPMVMMPLFGDQMDNAKRMETKGAGVTLNVLEMTSEDLENALKAVINDKSYKENIMRLSSLHKDRPVEPLDLAVFWVEFVMRHKGAPHLRPAAHDLTWYQYHSLDVIGFLLAVVLTVAFITFKCCAYGYRKCLGKKGRVKKAHKSKTH
notes: His-tag; made in house; host or cells: baculovirus-infected insect cells
[6]
  Km: 8.3 (0–31.4) μM
  Vmax: 0.0223 µmol/min/mg
  Vmax/Km: 2700 µL/min/mg
[7]
  Km: 2.8 (0–6.5) μM
  Vmax: 0.0153 µmol/min/mg
  Vmax/Km: 5500 µL/min/mg
[8]
  Km: 2.8 (0.7–4.9) μM
  Vmax: 0.0162 µmol/min/mg
  Vmax/Km: 5800 µL/min/mg
[9]
  Km: 10.7 (1.7–19.6) μM
  Vmax: 0.031 µmol/min/mg
  Vmax/Km: 2900 µL/min/mg
[10]
  Km: 7.0 (3.1–11) μM
  Vmax: 0.0053 µmol/min/mg
  Vmax/Km: 760 µL/min/mg
[11]
  Km: 2.2 (1–3.4) μM
  Vmax: 0.0059 µmol/min/mg
  Vmax/Km: 2700 µL/min/mg
[12]
  Km: 14 (10.7–17.3) μM
  Vmax: 0.0151 µmol/min/mg
  Vmax/Km: 1100 µL/min/mg

B2: UGT1A10 mutant 1A10-H210M (Homo sapiens; H210M) (protein)
chain: B1 chain with H185M
notes: His-tag; made in house; host or cells: baculovirus-infected SF9 insect cells
[13]
  Km: 3.8 (0.97–6.7) μM
  Vmax: 0.0095 µmol/min/mg
  Vmax/Km: 2500 µL/min/mg
[14]
  Km: 4.7 (1.5–7.9) μM
  Vmax: 0.0065 µmol/min/mg
  Vmax/Km: 1400 µL/min/mg
[15]
  Km: 4.6 (1.5–7.8) μM
  Vmax: 0.0059 µmol/min/mg
  Vmax/Km: 1300 µL/min/mg
[16]
  Km: 3.5 (0–9.3) μM
  Vmax: 0.0087 µmol/min/mg
  Vmax/Km: 2500 µL/min/mg
[17]
  Km: 26.8 (0–80) μM
  Vmax: 0.0063 µmol/min/mg
  Vmax/Km: 240 µL/min/mg
[18]
  Km: 7.8 (5.5–10.2) μM
  Vmax: 0.0063 µmol/min/mg
  Vmax/Km: 810 µL/min/mg
[19]
  Km: 32.9 (0–102) μM
  Vmax: 0.0117 µmol/min/mg
  Vmax/Km: 360 µL/min/mg
